According to article PMC9851377:

Target: CD3 on T lymphocytes (human (endogenous in T lymphocytes from PBMCs)) (UniProt P07766)
Test: FACS; dimer; binding to T lymphocytes

Sequence of UniProt P07766 (P07766 23-207): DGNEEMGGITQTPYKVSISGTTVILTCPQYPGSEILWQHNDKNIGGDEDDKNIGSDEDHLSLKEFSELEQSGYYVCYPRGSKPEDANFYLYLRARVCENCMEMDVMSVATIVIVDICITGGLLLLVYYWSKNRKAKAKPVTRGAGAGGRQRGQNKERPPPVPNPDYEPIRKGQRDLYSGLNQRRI

EC50: 0.17 µg/mL
Substance: dimeric γδ_(ECTO)-αCD3 (AJ8 TCR, 3(G4S) linker), purified dimer fraction (from UniProt Q99603)
